ChEMBL document CHEMBL3525919, “Potent inhibition of human sulfotransferase 1A1 by 17α-ethinylestradiol: role of 3'-phosphoadenosine 5'-phosphosulfate binding and structural rearrangements in regulating inhibition and activity” (Drug Metab Dispos, 2012)

B1: Sulfotransferase 1E1 (Homo sapiens) (protein)
chain: MNSELDYYEKFEEVHGILMYKDFVKYWDNVEAFQARPDDLVIATYPKSGTTWVSEIVYMIYKEGDVEKCKEDVIFNRIPFLECRKENLMNGVKQLDEMNSPRIVKTHLPPELLPASFWEKDCKIIYLCRNAKDVAVSFYYFFLMVAGHPNPGSFPEFVEKFMQGQVPYGSWYKHVKSWWEKGKSPRVLFLFYEDLKEDIRKEVIKLIHFLERKPSEELVDRIIHHTSFQEMKNNPSTNYTTLPDEIMNQKLSPFMRKGITGDWKNHFTVALNEKFDKHYEQQMKESTLKFRTEI
B2: Sulfotransferase 1A1 (Homo sapiens) (protein)
chain: MELIQDTSRPPLEYVKGVPLIKYFAEALGPLQSFQARPDDLLISTYPKSGTTWVSQILDMIYQGGDLEKCHRAPIFMRVPFLEFKAPGIPSGMETLKDTPAPRLLKTHLPLALLPQTLLDQKVKVVYVARNAKDVAVSYYHFYHMAKVHPEPGTWDSFLEKFMVGEVSYGSWYQHVQEWWELSRTHPVLYLFYEDMKENPKREIQKILEFVGRSLPEETVDFVVQHTSFKEMKKNPMTNYTTVPQEFMDHSISPFMRKGMAGDWKTTFTVAQNERFDADYAEKMAGCSLSFRSEL

Tests used:
[1] = substrate: C[C@]12CC[C@@H]3c4ccc(O)cc4CC[C@H]3[C@@H]1CC[C@@H]2O; assay: Activity of SULT1E1 (unknown origin); type: ADME, Homo sapiens
[2] = substrate: C[C@]12CC[C@@H]3c4ccc(O)cc4CC[C@H]3[C@@H]1CC[C@@H]2O; assay: Activity of human SULT1A1 expressed in Escherichia coli at 20 uM by Michaelis-Menten equation analysis in presence of PAPS; type: ADME
[3] = substrate: C#C[C@]1(O)CC[C@H]2[C@@H]3CCc4cc(O)ccc4[C@H]3CC[C@@]21C; assay: Activity of human SULT1A1 expressed in Escherichia coli at 6 uM by Michaelis-Menten equation analysis in presence of PAPS; type: ADME

Row | Protein | Km [1] [µM] | Km [2] [µM] | Km [3] [µM]
1 | B1 | 0.004 |  | 
2 | B2 |  | 0.36 | 0.45
